{"source": "paper PMC4749553", "about": "(2015)", "binders": {"B1": {"name": "Tim44(211–431) (protein)", "chain": "NIESKESFGKKVEDFKEKTVVGRSIQSLKNKLWDESENPLIVVMRKITNKVGGFFAETESSRVYSQFKLMDPTFSNESFTRHLREYIVPEILEAYVKGDVKVLKKWFSEAPFNVYAAQQKIFKEQDVYADGRILDIRGVEIVSAKLLAPQDIPVLVVGCRAQEINLYRKKKTGEIAAGDEANILMSSYAMVFTRDPEQIDDDETEGWKILEFVRGGSRQFT"}}, "target": "T1, His6-Tim44(43–263) (Saccharomyces cerevisiae (strain ATCC …, UniProt Q01852))", "T1 chain": "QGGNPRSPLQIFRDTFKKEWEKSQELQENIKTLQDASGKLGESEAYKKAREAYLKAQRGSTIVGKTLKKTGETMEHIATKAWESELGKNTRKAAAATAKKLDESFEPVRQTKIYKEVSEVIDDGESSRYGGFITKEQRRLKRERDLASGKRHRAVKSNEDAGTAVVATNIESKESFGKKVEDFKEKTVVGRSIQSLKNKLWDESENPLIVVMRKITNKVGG", "test": "Ni-NTA pull-down, Coomassie-stained SDS-PAGE"}
{"binder": "B1", "values": [{"measurement": "binding result", "result": "no binding"}]}
